Measurements reported in paper PMC5811392 (Biochemistry, 2018).

Legend:
[1] = molecular target: T1, Human p53 DNA-binding domain (residues 88-312) (human, UniProt P04637 88-312); experiment: ITC
[2] = molecular target: T1, Human p53 DNA-binding domain (residues …); experiment: NMR titration
[3] = molecular target: T1, Human p53 DNA-binding domain (residues …); experiment: fluorescence polarisation

T1 sequence (P04637 88-312): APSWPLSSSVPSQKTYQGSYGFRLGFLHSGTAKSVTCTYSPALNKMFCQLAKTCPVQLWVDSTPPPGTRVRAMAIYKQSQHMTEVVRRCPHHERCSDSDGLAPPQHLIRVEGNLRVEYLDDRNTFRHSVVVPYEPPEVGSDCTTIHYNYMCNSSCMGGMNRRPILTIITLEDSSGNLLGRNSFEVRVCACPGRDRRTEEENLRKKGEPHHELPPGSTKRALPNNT

Kd [1] [µM]	dH [1] [kcal/mol]	Kd [2] [µM]	Kd [3] [µM]	Binder
24 ± 15	–	–	–	FDRFSEMMNNMGGDEDVDLPEVDGADDDSQDSDDEKMPDLE (domain or fragment, human, UniProt Q15185 120-160, looked up) [GB1-p23 (120-160)]
7 ± 2	-1.9 ± 100	8 ± 2	21 ± 7	full length p23 (residues 1-160) (natural protein, human, UniProt Q15185 1-160, looked up) MQPASAKWYDRRDYVFIEFCVEDSKDVNVNFEKSKLTFSCLGGSDNFKHLNEIDLFHCIDPNDSKHKRTDRSILCCLRKGESGQSWPRLTKERAKLNWLSVDFNNWKDWEDDSDEDMSNFDRFSEMMNNMGGDEDVDLPEVDGADDDSQDSDDEKMPDLE
–	–	6 ± 4	–	GB1-p23 (110-160) (domain or fragment, human, UniProt Q15185 110-160, looked up) EDDSDEDMSNFDRFSEMMNNMGGDEDVDLPEVDGADDDSQDSDDEKMPDLE
